# Target: the molecule itself
# Experiment: SEC-MALS
protein,measurement,value
"Mycobacterium tuberculosis transcription termination factor Rho, wild type (enzyme) TDTDLITAGESTDGKPSDAAATDPPDLNADEPAGSLATMVLPELRALANRAGVKGTSGMRKNELIAAIEEIRRQANGAPAVDRSAQEHDKGDRPPSSEAPATQGEQTPTEQIDSQSQQVRPERRSATREAGPSGSGERAGTAADDTDNRQGGQQDAKTEERGTDAGGDQGGDQQASGGQQARGDEDGEARQGRRGRRFRDRRRRGERSGDGAEAELREDDVVQPVAGILDVLDNYAFVRTSGYLPGPHDVYVSMNMVRKNGMRRGDAVTGAVRVPKEGEQPNQRQKFNPLVRLDSINGGSVEDAKKRPEFGKLTPLYPNQRLRLETSTERLTTRVIDLIMPIGKGQRALIVSPPKAGKTTILQDIANAITRNNPECHLMVVLVDERPEEVTDMQRSVKGEVIASTFDRPPSDHTSVAELAIERAKRLVEQGKDVVVLLDSITRLGRAYNNASPASGRILSGGVDSTALYPPKRFLGAARNIEEGGSLTIIATAMVETGSTGDTVIFEEFKGTGNAELKLDRKIAERRVFPAVDVNPSGTRKDELLLSPDEFAIVHKLRRVLSGLDSHQAIDLLMSQLRKTKNNYEFLVQVSKTTPGSMDSD",stoichiometry N,6

# — publication doi:10.1101/2021.06.25.449899 (bioRxiv, 2021)
